Measurements reported in patent US20250222128A1, “ANTIBODY DRUG-CONJUGATES TARGETING C-MET AND METHODS OF USE THEREOF” (Zymeworks BC Inc., priority 2022, published 2025).

Key:
[1] = molecular target: c-Met (hepatocyte growth factor receptor, HGFR), endogenous on tumour cell lines (UniProt P08581); experiment: apparent Kd, flow cytometry on H292 cells (endogenous cMet)
[2] = molecular target: c-Met (hepatocyte growth factor receptor, HGFR), endogenous on tumour cell lines (UniProt P08581); experiment: apparent Kd, flow cytometry on SNU-5 cells (endogenous cMet)
[3] = molecular target: c-Met (hepatocyte growth factor receptor, HGFR), endogenous on tumour cell lines (UniProt P08581); experiment: cell-based or functional assay

c-Met (hepatocyte growth factor receptor, HGFR), endogenous on tumour cell lines, sequence (P08581 25-1390 limits assumed): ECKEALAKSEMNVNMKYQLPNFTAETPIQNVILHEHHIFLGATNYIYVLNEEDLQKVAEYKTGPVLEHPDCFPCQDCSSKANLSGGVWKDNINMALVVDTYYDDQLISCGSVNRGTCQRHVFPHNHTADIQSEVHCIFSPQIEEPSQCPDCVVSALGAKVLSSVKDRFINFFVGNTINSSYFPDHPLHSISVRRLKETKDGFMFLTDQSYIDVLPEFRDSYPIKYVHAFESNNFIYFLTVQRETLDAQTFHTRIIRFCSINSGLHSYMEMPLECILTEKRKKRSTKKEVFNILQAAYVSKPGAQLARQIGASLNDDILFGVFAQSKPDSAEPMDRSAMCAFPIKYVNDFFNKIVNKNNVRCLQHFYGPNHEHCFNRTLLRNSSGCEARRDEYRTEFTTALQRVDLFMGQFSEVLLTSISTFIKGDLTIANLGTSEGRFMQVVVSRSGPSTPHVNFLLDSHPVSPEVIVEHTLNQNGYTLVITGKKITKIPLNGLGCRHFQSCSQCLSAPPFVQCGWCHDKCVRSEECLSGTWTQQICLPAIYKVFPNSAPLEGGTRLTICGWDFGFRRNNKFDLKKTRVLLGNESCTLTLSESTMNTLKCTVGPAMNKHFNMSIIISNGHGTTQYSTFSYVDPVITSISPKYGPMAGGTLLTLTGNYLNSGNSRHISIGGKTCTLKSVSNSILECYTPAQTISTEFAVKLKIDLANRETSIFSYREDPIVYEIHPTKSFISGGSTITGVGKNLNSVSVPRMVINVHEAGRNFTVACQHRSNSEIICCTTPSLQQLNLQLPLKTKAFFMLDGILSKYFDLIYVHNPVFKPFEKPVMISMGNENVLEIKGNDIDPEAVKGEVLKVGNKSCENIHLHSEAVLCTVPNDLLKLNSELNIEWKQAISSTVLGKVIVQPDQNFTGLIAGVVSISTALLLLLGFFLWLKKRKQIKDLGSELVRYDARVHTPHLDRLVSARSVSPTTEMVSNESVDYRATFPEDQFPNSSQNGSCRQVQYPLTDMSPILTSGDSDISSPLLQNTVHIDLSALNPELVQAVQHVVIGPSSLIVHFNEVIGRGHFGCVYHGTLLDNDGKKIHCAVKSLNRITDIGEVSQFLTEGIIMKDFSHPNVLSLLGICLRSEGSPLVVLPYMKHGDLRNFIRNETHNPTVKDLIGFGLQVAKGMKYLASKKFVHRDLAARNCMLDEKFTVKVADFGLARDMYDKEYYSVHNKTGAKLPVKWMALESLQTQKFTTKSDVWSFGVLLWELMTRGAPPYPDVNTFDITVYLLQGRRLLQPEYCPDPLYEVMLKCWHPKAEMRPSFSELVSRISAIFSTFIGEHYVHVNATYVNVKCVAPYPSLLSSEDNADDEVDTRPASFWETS

Kd [1]: > 50 nM
Kd [2]: > 50 nM
Mean Object Fluorescence (Internalized), 5 Hours 37° C., EBC-1, 0.3 nM [3]: 2690
Mean Object Fluorescence (Internalized), 5 Hours 37° C., EBC-1, 1.9 nM [3]: 3050
Mean Object Fluorescence (Internalized), 5 Hours 37° C., EBC-1, 12 nM [3]: 1990
Mean Object Fluorescence (Internalized), 5 Hours 37° C., EBC-1, 70 nM [3]: 2600
Mean Object Fluorescence (Internalized), 5 Hours 37° C., HT-29, 0.3 nM [3]: 2750
Mean Object Fluorescence (Internalized), 5 Hours 37° C., HT-29, 1.9 nM [3]: 2360
Mean Object Fluorescence (Internalized), 5 Hours 37° C., HT-29, 12 nM [3]: 2330
Mean Object Fluorescence (Internalized), 5 Hours 37° C., HT-29, 70 nM [3]: 2290
Substance: palivizumab (v22277), unconjugated anti-RSV antibody
